Assay: label from the status in PepcDB records

| Sequence | protein production |
| --- | --- |
| MTRNRRRIAFAAILAMATTAHAQQGQVLTTQDEIGGVYEGTFRGGLQHGTGTYRLPNGYEYSGEWVDGEIRGRGVARFPNGSVYEGSFAQGKPEGMGKITFSDGGTYEGEWSNGVINGQGVAVYANGVRYEGGFRDARHHGKGVMQSPGGYVYEGDWADGQKEGLGKITYPDGAVYEGGIVAGQRHGEGTLTLPDGLVYVGFWADGQINGKGTLTQANGDVYEGDLIAGRREGKGKVTYANGDVYQGDFTDDRREGQGIFTGTDGYSYAGSWVAGQIEGQGRVTYPDGSVYEGNFRADLADGQGKITYPDGSSYEGEWVAGVIEGTGTAIYANGIVYKGTFKNAKNHGQGVMTYADGYRYEGEWQDGVRHGQGKATYPDGSVYTGQYVNGQREGDGEIVMADGFRYKGQWQSGKISGIGVATYANGDIYEGHFRNGKRQGEGTMKYASGQEEKGNWDNGALTKGAAASDG | failed |
| MILPPIPTPFDREGRLDEEAFRELAQALEPLVDGLLVYGSNGEGVHLTPEERARGLRALRPRKPFLVGLMEETLPQAEGALLEAKAAGAMALLATPPRYYHGSLGAGLLRYYEALAEKMPLFLYHVPQNTKVDLPLEAVEALAPHPNVLGIKDSSGDLSRIAFYQARLQEFRVYTGHAPTFLGALALGAEGGILAAANLAPRAYRALLDHFREGRLAEAQELQKKLFPLGDLLAKGGVPLLKQALRHLGLPAGYPRPPYPAESPLWERFLPVLEGLKEEGWVL | not failed |
| MMKKLFLDTHSASGEIKLTDGLLYWFPQFLTPIQADQAFQQMLTHLDWQQKSIRLFGKSVLQPRLIAWYGEKGYRYSGLSLSAQPFPPPLLTLKTQCEQAAQAPFNSVLANLYRDGQDSMGWHQDNEPELGSNPVIASLSLGESRRFLLRHHKDHALQVECELNHGDLLIMAGNTQHFWQHAIPKTRQTKQTRINLTFRNILLEHHHHHH | not failed |
| IHIQQIENLMEYEFSHLVQDSEEEGFNFLIRLINGYKNKVNVFNKTGECLYGIFQGDMLIGVGGLNEDPYTKDNKIGRLRRFYISRDYRRLGLGNLLLNQLLCHAEKYFEVIVLHTDTKQGDVFYTANGFVK | failed |
| MDRPLSFAAVSFLATLVTLLVLMQTALVAGGPLRALVLASVGAIGTYFAIRSGVLKS | failed |
| MRGSHHHHHHTDPALRAATLLQLHFAFNGPFGDAMAEQLKPLAESINQEPGFLWKVWTESEKNHEAGGIYLFTDEKSALAYLEKHTARLKNLGVEEVVAKVFDVNEPLSQINQAKLAGLCGR | not failed |
| STQYMELNQRDEKSPFRNANLRKAISYSIDRKALVESILGDGSIEPNGLVPADMAKDPSGGKDFAKEAGSQIEYDTKKAKEYWEKAKKELGISTLTMDILSSDADSSKKTVEFVQGSIQDALDGVKVTVSPVPFSVRLDRSNKGDFDAVIGGWSADYADPSSFLDLFASDNSYNRGRYNNAEFDKFVKAASSADATDPEKRWDDMLNAEKTIMGDMGVVPLFQKS | not failed |
| MSAHRPAAATPAAAAPSKRERFLSLDVFRGLTIFLMILVNTAGPGAQAYAQLTHAAWFGFTLADLVFPSFLFAVGSAMSFALATNTPHLQFLGRVSRRAALILLCGVLMYWFPFFHLQPDGGWAFTTVDQLRLTCVLQRIGLCYLAAALLVRYLPPRGIAPVCLALLLGYWALLYAFGQPGAELSKTGNAGTRLDLWLYGRDHLYRKDGGFDPEGLLGTLSATVNVLAGYLCGRFLQRHGKTIASTRSLLLAGAGLVLLALLWAPAWPLSKKLWSGSFVACTVGLDLLALGALVYLLELRGWTGGSGFFTVLGRNPLAIYLFSELFVVVLRLIPAGSSGLDLYAWAGIGVFQTIAPGPLGSLLCALSYTLMCCAVGWWMDRRRWYLRL | failed |
| MRKDILYMLLLLLITDLSIIADIPVLRQSLPFIFFTIIPGYLLLGILKFKVELIDGSVIAAALSIFLMMMTGLIINSFYPLIMRPLSLLPILSAINLLIIALMVIYHLRGEEPLNLKASGNLSTALSSLLFPVLTVIGSYLMNKYSVNTVLLLVLLFIPVYIILLEVFKKKIGPATYPVAIFSISLSLLIMNGLPSNYLIGRDIHWEFYLFRKALMAHHWDMHVGSYNAYNACLSVTVLPVIYKVLLNVPEVYIFKFYYGFIGALMPLPVYLISERILKRSDYGFYATLLFIFQFSFIYILGWCRQLVALLFFAAAVMVLTGDMRRSHKKLLFVVFMVGTVLSHYTTAYVFFFLVALIPILVRVMKRLKVPDDSRGFFAASLAVLFFVVVFAWYAQATGAPFKSAVSFFTKTLRSMSEFFSADMRNNSELAVVGIGISNFPNLLSTLVHDTVFALIGAGALAVIFKEEYRQGREYLAAVILCMGILVAFIALPFVSKGYGGPRLFTQLLVILAPLFITGIDALTGFIGRVRWRIPSIIVLLILLFSCTTYLNYHFAGIPYSYAYDDGGERRYETFIYDNEVTGALWLSNHYNETSVIHGDKMIYSRIIYGFSTYPRVDREFFNGTDTETGGYVYLTHFNLYQRLVFLDYPLAPPRVVNGALKLDNVESINNYKDLIVNMSTIYDNGGSRVLIVA | failed |
| MQDLGIAFQTAVGDSGGNLDGRTPLPSNDWLMKRNCSLTPRQAGWFYFSIVCFSTAIAVFFAVWLGAWLVLPFAGLELLGLGIALLAYARHAADYERVSVTDGMLVVETASASRITREVFNPRWVRVELGESFRAPVVLRSDKRSVQVGLYLDPYRRRKFAQELAVALQRV | failed |
| MMSTPALRPYLPEDAAVTAAIFVASIEQLTADDYSEEQQEAWASAADDEAKFAARLSGQLTLIATLQGVPVGFASLKGPDHIDMLYVHPDYVGRDVGTTLIDALEKLAGARGALILTVDASDNAAEFFAKRGYVAKQRNTVSINGEWLANTTMTKSLADSAAPGASS | not failed |
| MNNKDLWIKEEIIWSEHKCIRFAAGGYEALIIPDVGGNVVELKDTNKGVTILRTPKKDLKFEDFKNRPQVYGLPVLFPPNRIDDGTFKLGDKTYKFPINEAKNNNYIHGFIKNSKWTVHKKKIDQDKALVEVVFDFTKENEAYKYFSHEFQFKLSYELSSKGLKQTTSVVNLSSEEMPLSVGYHSAFNVPFIEGSEDSNCRVKISIDKFWKQDSRNLPTGESFAPTGEQKEYLENGVAVASHPIESLFSLKDIDVNGKTFRGACIEDASKNTRVVYEMSSEYKYLVIWNDMGDKKYACIEPQTSIINSPNVKLDRSVSGFKTLKPNESWSGVCKLYIENM | not failed |
| MRSFLKRTQCAQLRSTPSLIFSTGITHPAETALQRFKFLMYQVVASDLDGTLLSPDHTLSPYAKEPLKLLTARGINFVFATGRHHVDVGQIRDNLEIKSYMITSNGARVHDLDGNLIFAHNLDRDIASDLFGVVNDNPDIITNVYRDDEWFMNRHRPEEMRFFKEAVFKYALYEPGLLEPEGVSKVFFTCDSHEQLLPLEQAINARWGDRVNVSFSTLTCLEVMAGGVSKGHALEAVAKKLGYSLKDCIAFGDGMNDAEMLSMAGKGCIMGSAHQRLKDLHPELEVIGTNADDAVPHYLRKLYLS | failed |
| MNEQPNNETLIQSSSRDLQIIEDDAFSYEGYQVVRGEFFAHTYEPSFTFNANKVSVNTACIKKLPKTDFVQILVNPDEKKLAVRPCQEDEKDSFRWCSATKKRSPRQITCRIFFAKVITLMGWNSSYRYKLLGKLIRSDNELLFVFDLTTPEIYVRTAKDDGKIKTSRTPTYPAEWQNQFGVPVEEHQSNLQINMFDGYAVFGISENTPPEEPKNPAEPQKEETHYEQSSLFTANPMH | failed |
| MKVGAVVITMGNRPEELRALLDSVAKQDGDPVQVVVVGNGSPVPEVPEGVRTVELPENLGIPGGRNVGIEAFGPGGSDVDILLFLDDDGLLARTDTAELCREAFAADDELGIISFRIADPDTGETQRRHVPRLRASDPMRSSRVTTFLGGANAVRTRVLTQVGGLPDAFFYAHEETDLAWRALDAGWMIDYRSDMVLNHPTTAPSRHAVYHRMVARNRVWLARRNLPALLVPVYLGVWMALTLLRRPSRPALKAWFGGFREGWATPCGPRRPMRWRTVWRLTRLGRPPVI | failed |
| MRALIVSNPNSTTQSAEMFRHVIPTLRAVPGLELRAQMTHYAGHARHMCENLTVEDYDVVIAVGGDGTVNEVINGLLGDLPSAPPALAVIPTGSANVFARALGLPADPAQAAEVLADALHKGSTRRINLGKWGS | failed |
| MAVDMFIKIGDVKGESKDKTHAEEIDVLAWSWGMSQSGSMHMGGGGGAGKVNVQDLSFTKYIDKSTPNLMMACSSGKHYPQAKLTIRKAGGENQVEYLIITLKEVLVSSVSTGGSGGEDRLTENVTLNFAQVQVDYQPQKADGAKDGGPVKYGWNIRQNVQA | not failed |
| SAAKALKDLKNLPVSERNIDYKTKLLVGKMNGTAEDKPPQNSVPFDHNHPKGDEIEKPEAERVIVEIEYIESKDLNNVTQVDAVLKSLVTELDSKDWVLVCDALNTIRRLSIFHKEEMLHMLEKVILFIVKSLKNPRSAVSKTACMTSADIFSSYNDHTIDQLDLLLTQLLLKSSQDKRFVCEAAEKALVAMTAHVSPALLLPKLQPFLKNRNPRIRAKASTCFSRCVPRLGIEGIREYGIEKLVQAASSQLSDQLPESREAARAVLLELQTVYKKTTNVEPKEEHPEPVTWQIFCQSNLSPLSAQAVIRVTNVAGVAREGLVAGS | failed |
| MDGEILRDPTRRFVLQSGAAVGGGLLLSFTMSSEGQAAGDTKVNAYVRIASDGKVTIASKVPEVGQGIKTALPMLIAEELDVDWSAVTVEQAIADTKIYGRQVAGGSMATTLEYDGLRRVGATVRALLIAAAAARWNVPADSLKTEPGFVVDAAGKRRASYGELAQAAAALTPPDPKSLTLKDPKAFRIIGKSHKSQNLDAIVTGQPTYGIDVRLPGMLFAAFAKAPVYGAKVASVDLALAKAVKGVRDAFIIEGGTNLQGLLPGVAVVADSWWAARKGREALQIQWAEHPTASQSTVGFAAKAAELAAAPPHRNLHNDGDVEAALKGAAKTVSAAYSYPFIAHAALEPQNCTAHVKDGKVEIWAPTQNPESGRALVARALNVDPSAITIHLIRGGGGFGRRLMNDYMVEAAAIAAKVNAPVQLIWTREDDMQHDFYRPGGWHNLTAGLDAKGGLTAWKNHFITFGEGETFNTAAAMNATQFPCRAVANYRHDVSVMPLGFPTGFLRAPGNNAFGFVIQSFTDELALAAGKDPVAFRRELLGEPRLLGEPGKGDSFHTGRMRGVLDLVAEMSGWGRKVPKGTGLGVACHYSHLGYVAVVMQVTVKDGAVKVDKVWAAADVGRQIVNPSGADQQMQGSILDAIGSTLYQSITFENGAATNSNFGDFPLLRMADAPPVEVRYKLSDNNPTGLGEPAYPPAPAALCNAIFAATGKRIRSLPIGDQLA | failed |
| MRHFGPISGIATFKDTYVATAGYDNQVILWDARTRTPIQRVLHDHLANQCAFNAAGTLLVSASSDYTARVWEVPSLRLKTVLIGHDDDIEMAAFSPDGQTIATCSRDHSIRLFNLSGQTLRILHGHTADVISVCWSADGQTLVSSSDDGSIRRWDANTGQQLETIDLGGVETDTVALSREGIIFAGDDEGKISIISPRGTLLQPAHSAGIKRIIWDDSQRLLISLSYDRSVMLWHLKQDGTLVKTAETSLPSIIWPRSCALLGSHRIAFVTFGSRYATWDFATQTWDLSGIEPAVSLNAVAVVGEDVYSIGDAGILHINGQPSIKAGSLCNFLLPFGDSVLTGGQMGTVFDARTGATLYQHRSPLNCGTTFIKDGALHAAIGTYTGEALIFCLDQQQPRFVTQVRMHENAIKGIAADETYIFSVCATAAAAFFRIADFGLETYLDKAHERISNGCTQIQGGFASIGRDLKLRLWRDGASEVFDTPHSHSIKCIAISRDRSMIATGSYGGTVAVFDLKKRVWASVEKPTASGISCLIHDASGEGFLASAYDGRIYPITPRAAVQSARP | failed |
